Legend:
[1] = biological target: hepcidin-imprinted silk fibroin (SilMA) nanoparticles, bioMIPs (Bombyx mori); test: ITC; hepcidin 28 μM (syringe, 50 μL) titrated into bioMIP or control SF-NPs 2.5 μM (220 μL) in 50 mM PBS pH 7.4, 25 °C, 16 injections of 3 μL; independent site model; triplicate
[2] = biological target: hepcidin-imprinted silk fibroin (SilMA) nanoparticles, bioMIPs (Bombyx mori); test: competitive fluorescence assay; 30 μg/well of bioMIPs with hepcidin-depleted pooled serum (10 μL in 150 μL PBS 10 mM pH 7.4, 0.08% Tween-20), hepfitc 500 or 250 pmol, hepcidin competitor 0.11, 0.34, 0.68, 2.70 μM; displacement from ≥ 120 min of incubation; Hill fit
[3] = biological target: hepcidin-imprinted silk fibroin (SilMA) nanoparticles, bioMIPs (Bombyx mori); test: other fluorescence titration; 37.5 μg of bioMIPs or non-imprinted SF-NPs per well incubated with hepfitc 3 nM–2.5 μM in PBS 10 mM pH 7.4 with 0.08% Tween-20, read at 30 min; Langmuir fit; apparent
[4] = biological target: hepcidin-imprinted silk fibroin (SilMA) nanoparticles, bioMIPs (Bombyx mori); test: competitive fluorescence assay; bioMIPs incubated with hepfitc (500 pmol) alone or with one competitor (hepcidin; angiotensin, cytochrome c or human serum albumin 6 nmol); bound hepfitc at 30 min; triplicate

| Kd [1] | dH [1] | stoichiometry N [1] | Ka [2] | Kd [2] | Kd [3] | imprinting factor (hepfitc bound to the bioMIP with respect to that bound to the NIP) [3] | hepfitc bound at 30 min [4] | Substance |
| --- | --- | --- | --- | --- | --- | --- | --- | --- |
| 360 nM | -14 kcal/mol | 2.1 | 2.41e+06 M⁻¹ | 410 nM |  |  |  | Hepcidin-25 (from UniProt P81172 60-84) (peptide) |
|  |  |  |  |  | 1670 nM | 2 | 125 pmol | fluorescent hepcidin (hepfitc) (peptide) |

— paper PMC8782820
